According to patent publication US20180155451A1 (published 2018):

T1: FcγRIIa R (FcγRIIa, allotype R: Arg at position 131) extracellular domain with C-terminal His tag (human, UniProt P12318 34-217)
T1 construct: extracellular domain; also called FcgRIIa R; 2aR; not shown: His tag at the C terminus
T1 sequence (looked up): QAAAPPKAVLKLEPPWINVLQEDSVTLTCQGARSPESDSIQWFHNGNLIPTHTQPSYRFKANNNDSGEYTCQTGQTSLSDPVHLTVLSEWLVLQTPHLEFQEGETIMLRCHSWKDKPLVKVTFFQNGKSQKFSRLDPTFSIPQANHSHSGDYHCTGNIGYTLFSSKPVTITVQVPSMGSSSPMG

T2: FcγRIIb extracellular domain with C-terminal His tag (human, UniProt P31994 43-217)
T2 construct: extracellular domain; also called FcgRIIb; 2b; not shown: His tag at the C terminus
T2 sequence (looked up): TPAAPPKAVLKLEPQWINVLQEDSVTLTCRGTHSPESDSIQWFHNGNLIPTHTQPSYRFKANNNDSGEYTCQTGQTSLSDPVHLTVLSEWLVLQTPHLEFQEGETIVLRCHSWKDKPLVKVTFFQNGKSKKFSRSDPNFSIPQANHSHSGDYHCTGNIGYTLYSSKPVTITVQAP

T3: FcγRIIb extracellular domain with C-terminal His tag (human, UniProt P31994 43-217)
T3 construct: extracellular domain; Soluble receptor expressed in FreeStyle293 cells and used as analyte in Biacore; also called FcgRIIb; 2b; not shown: His tag at the C terminus
T3 sequence (looked up): T2 sequence (looked up)

B1: GpH7-A5/GpH7-B3 variant G236_02A/GpL16-k0 (antibody, human IgG1, kappa)
heavy 1: not shown
heavy 2: not shown
light: DIVMTQSPLSLPVTPGEPASISCQASESLVHSNRNTYLHWYLQKPGQSPQLLIYKVSNRFSGVPDRFSGSGSGTDFTLKISRVEAEDVGVYYCSQNTHVPPTFGQGTKVEIERTVAAPSVFIFPPSDEQLKSGTASVVCLLNNFYPREAKVQWKVDNALQSGNSQESVTEQDSKDSTYSLSSTLTLSKADYEKHKVYACEVTHQGLSSPVTKSFNRGEC
notes: He Ab: alteration in the GpH7-B3 H chain only; also called He Ab
B2: GpH7-A5/GpH7-B3 variant G237_11K/GpL16-k0 (antibody, human IgG1, kappa)
heavy 1: not shown
heavy 2: not shown
light: B1 light
notes: as for B1
B3: GpH7-A5/GpH7-B3 variant G236_03V/GpL16-k0 (antibody, human IgG1, kappa)
heavy 1: not shown
heavy 2: not shown
light: B1 light
notes: as for B1
B4: GpH7-A5/GpH7-B3 variant G237_16H/GpL16-k0 (antibody, human IgG1, kappa)
heavy 1: not shown
heavy 2: not shown
light: B1 light
notes: as for B1
B5: GpH7-A5/GpH7-B3 variant G236_05P/GpL16-k0 (antibody, human IgG1, kappa)
heavy 1: not shown
heavy 2: not shown
light: B1 light
notes: as for B1
B6: GpH7-A5/GpH7-B3 variant G236_20W/GpL16-k0 (antibody, human IgG1, kappa)
heavy 1: not shown
heavy 2: not shown
light: B1 light
notes: as for B1
B7: GpH7-A5/GpH7-B3 variant G236_12R/GpL16-k0 (antibody, human IgG1, kappa)
heavy 1: not shown
heavy 2: not shown
light: B1 light
notes: as for B1
B8: GpH7-A5/GpH7-B3 variant G237_12R/GpL16-k0 (antibody, human IgG1, kappa)
heavy 1: not shown
heavy 2: not shown
light: B1 light
notes: as for B1
B9: GpH7-A5/GpH7-B3 variant G236_07I/GpL16-k0 (antibody, human IgG1, kappa)
heavy 1: not shown
heavy 2: not shown
light: B1 light
notes: as for B1
B10: GpH7-A5/GpH7-B3 variant L235_12R/GpL16-k0 (antibody, human IgG1, kappa)
heavy 1: not shown
heavy 2: not shown
light: B1 light
notes: as for B1
B11: GpH7-A5/GpH7-B3 variant G236_13S/GpL16-k0 (antibody, human IgG1, kappa)
heavy 1: not shown
heavy 2: not shown
light: B1 light
notes: as for B1
B12: GpH7-A5/GpH7-B3 variant G237_14T/GpL16-k0 (antibody, human IgG1, kappa)
heavy 1: not shown
heavy 2: not shown
light: B1 light
notes: as for B1
B13: GpH7-A5/GpH7-B3 variant G236_04F/GpL16-k0 (antibody, human IgG1, kappa)
heavy 1: not shown
heavy 2: not shown
light: B1 light
notes: as for B1
B14: GpH7-A5/GpH7-B3 variant G236_15Y/GpL16-k0 (antibody, human IgG1, kappa)
heavy 1: not shown
heavy 2: not shown
light: B1 light
notes: as for B1
B15: GpH7-A5/GpH7-B3 variant G237_05P/GpL16-k0 (antibody, human IgG1, kappa)
heavy 1: not shown
heavy 2: not shown
light: B1 light
notes: as for B1
B16: GpH7-A5/GpH7-B3 variant G236_14T/GpL16-k0 (antibody, human IgG1, kappa)
heavy 1: not shown
heavy 2: not shown
light: B1 light
notes: as for B1
B17: GpH7-A5/GpH7-B3 variant G236_19Q/GpL16-k0 (antibody, human IgG1, kappa)
heavy 1: not shown
heavy 2: not shown
light: B1 light
notes: as for B1
B18: GpH7-A5/GpH7-B3 variant L234_01G/GpL16-k0 (antibody, human IgG1, kappa)
heavy 1: not shown
heavy 2: not shown
light: B1 light
notes: as for B1
B19: GpH7-A5/GpH7-B3 variant G236_08L/GpL16-k0 (antibody, human IgG1, kappa)
heavy 1: not shown
heavy 2: not shown
light: B1 light
notes: as for B1
B20: GpH7-A5/GpH7-B3 variant G237_03V/GpL16-k0 (antibody, human IgG1, kappa)
heavy 1: not shown
heavy 2: not shown
light: B1 light
notes: as for B1
B21: GpH7-A5/GpH7-B3 variant G236_16H/GpL16-k0 (antibody, human IgG1, kappa)
heavy 1: not shown
heavy 2: not shown
light: B1 light
notes: as for B1
B22: GpH7-A5/GpH7-B3 variant L234_02A/GpL16-k0 (antibody, human IgG1, kappa)
heavy 1: not shown
heavy 2: not shown
light: B1 light
notes: as for B1
B23: GpH7-A5/GpH7-B3 variant G236_06M/GpL16-k0 (antibody, human IgG1, kappa)
heavy 1: not shown
heavy 2: not shown
light: B1 light
notes: as for B1
B24: heterodimerized antibody GpH7-A5/GpH7-B3 variant I336_01G/GpL16-k0 (antibody, human IgG1, kappa)
heavy 1: not shown
heavy 2: not shown
light: B1 light
notes: Substitution in only one H chain (GpH7-B3 side); also called He Ab
B25: heterodimerized antibody GpH7-A5/GpH7-B3 variant K334_01G/GpL16-k0 (antibody, human IgG1, kappa)
heavy 1: not shown
heavy 2: not shown
light: B1 light
notes: as for B24
B26: heterodimerized antibody GpH7-A5/GpH7-B3 variant I336_02A/GpL16-k0 (antibody, human IgG1, kappa)
heavy 1: not shown
heavy 2: not shown
light: B1 light
notes: as for B24
B27: heterodimerized antibody GpH7-A5/GpH7-B3 variant T335_06M/GpL16-k0 (antibody, human IgG1, kappa)
heavy 1: not shown
heavy 2: not shown
light: B1 light
notes: as for B24
B28: heterodimerized antibody GpH7-A5/GpH7-B3 variant I336_03V/GpL16-k0 (antibody, human IgG1, kappa)
heavy 1: not shown
heavy 2: not shown
light: B1 light
notes: as for B24
B29: heterodimerized antibody GpH7-A5/GpH7-B3 variant T335_02A/GpL16-k0 (antibody, human IgG1, kappa)
heavy 1: not shown
heavy 2: not shown
light: B1 light
notes: as for B24
B30: heterodimerized antibody GpH7-A5/GpH7-B3 variant T335_11K/GpL16-k0 (antibody, human IgG1, kappa)
heavy 1: not shown
heavy 2: not shown
light: B1 light
notes: as for B24
B31: heterodimerized antibody GpH7-A5/GpH7-B3 variant T335_01G/GpL16-k0 (antibody, human IgG1, kappa)
heavy 1: not shown
heavy 2: not shown
light: B1 light
notes: as for B24
B32: heterodimerized antibody GpH7-A5/GpH7-B3 variant T335_05P/GpL16-k0 (antibody, human IgG1, kappa)
heavy 1: not shown
heavy 2: not shown
light: B1 light
notes: as for B24
B33: heterodimerized antibody GpH7-A5/GpH7-B3 variant T335_12R/GpL16-k0 (antibody, human IgG1, kappa)
heavy 1: not shown
heavy 2: not shown
light: B1 light
notes: as for B24
B34: heterodimerized antibody GpH7-A5/GpH7-B3 variant K334_09D/GpL16-k0 (antibody, human IgG1, kappa)
heavy 1: not shown
heavy 2: not shown
light: B1 light
notes: as for B24

Each binder was assayed against T1, FcγRIIa R (FcγRIIa, allotype R: Arg at …) (assay: SPR Biacore, antibody captured, FcgR analyte; vs HeCon Ab GpH7-A5/GpH7-B3/GpL16-k0 = 100).
Method: (§1) The heterodimerized antibodies He Abs in which one of the H chains was introduced with an alteration were assayed for their binding activities to each activating FcγR and inhibitory FcγR according to the method described in Example 4. […] The activating FcγRs in FIGS. 26, 27, 28, and 29 are FcγRIa, FcγRIIa (R), FcγRIIa (H), and FcγRIIIa, respectively.
(§2) Analysis of interaction between objective antibody and the FcγR was carried out using Biacore T100 (GE Healthcare). HBS-EP+ (GE Healthcare) was used as the running buffer, and the measurement temperature was set to 25° C. Chips produced by immobilizing the antigen peptide by the amine coupling method to a Series S Sencor Chip CM5 (GE Healthcare), or alternatively, chips produced by allowing preliminarily biotinylated antigen peptides to interact with and immobilize onto a Series S Sensor Chip SA (certified) (GE Healthcare) were used. Antibodies of interest were captured onto an antigen peptide-immobilized chip, and allowed to interact to each FcγR diluted with running buffer. To regenerate and repeatedly use the chip, the antibodies captured on the chip were washed off by reacting 10 mM glycine-HCl, pH 1.5.

Binder	He/Con_2aR [control = 100]
B1	146
B2	17.1
B3	91.6
B4	74.5
B5	47.9
B6	77.9
B7	24.1
B8	24.2
B9	87.1
B10	16.2
B11	136
B12	78.6
B13	53.1
B14	58.6
B15	34.5
B16	103
B17	74.2
B18	62.3
B19	65.8
B20	93
B21	62.7
B22	79.6
B23	57.3

What follows are binders tested against T2, FcγRIIb extracellular domain with … in the same assay as above.
Method: as §1, §2

Binder	He/Con_2b [control = 100]
B1	96.5
B3	35.3
B4	55.2
B5	19
B6	58.2
B7	6.8
B9	31
B11	96.7
B12	54.8
B13	39.3
B14	39.5
B15	24.6
B16	57.8
B17	46.6
B18	50.7
B19	26.8
B20	61.4
B21	27.9
B22	64.9
B23	45.5

These binders were tested against T1, FcγRIIa R (FcγRIIa, allotype R: Arg at …) (assay: ratio He/Con_2aR : He/Con_2b (FcgRIIa R over FcgRIIb), SPR Biacore).
Method: as §1, §2

Binder	He_2aR/2b (IIaR/IIb)
B1	1.51
B2	1.9
B3	2.6
B4	1.35
B5	2.52
B6	1.34
B7	3.55
B8	2.47
B9	2.81
B10	1.69
B11	1.41
B12	1.43
B13	1.35
B14	1.48
B15	1.4
B16	1.78
B17	1.59
B18	1.23
B19	2.45
B20	1.52
B21	2.24
B22	1.23
B23	1.26

The binders below were run against T3, FcγRIIb extracellular domain with … (assay: SPR Biacore, relative binding amount).

Binder	He/Con_2b
B24	90.1 % of GpH7-A5/GpH7-B3/GpL16-k0 (=100)
B25	92.5 % of GpH7-A5/GpH7-B3/GpL16-k0 (=100)
B26	84.9 % of GpH7-A5/GpH7-B3/GpL16-k0 (=100)
B27	99.4 % of GpH7-A5/GpH7-B3/GpL16-k0 (=100)
B28	90.3 % of GpH7-A5/GpH7-B3/GpL16-k0 (=100)
B29	94 % of GpH7-A5/GpH7-B3/GpL16-k0 (=100)
B30	91 % of GpH7-A5/GpH7-B3/GpL16-k0 (=100)
B31	96.7 % of GpH7-A5/GpH7-B3/GpL16-k0 (=100)
B32	99.9 % of GpH7-A5/GpH7-B3/GpL16-k0 (=100)
B33	91.9 % of GpH7-A5/GpH7-B3/GpL16-k0 (=100)
B34	94.8 % of GpH7-A5/GpH7-B3/GpL16-k0 (=100)

These binders were tested against T4, FcγRIa extracellular domain with C-terminal His tag (human, UniProt P12314 16-292) (assay: SPR Biacore, relative binding amount).
T4 construct: extracellular domain; Soluble receptor expressed in FreeStyle293 cells and used as analyte in Biacore; also called FcgRI; 1a; not shown: His tag at the C terminus
T4 sequence (P12314 16-292): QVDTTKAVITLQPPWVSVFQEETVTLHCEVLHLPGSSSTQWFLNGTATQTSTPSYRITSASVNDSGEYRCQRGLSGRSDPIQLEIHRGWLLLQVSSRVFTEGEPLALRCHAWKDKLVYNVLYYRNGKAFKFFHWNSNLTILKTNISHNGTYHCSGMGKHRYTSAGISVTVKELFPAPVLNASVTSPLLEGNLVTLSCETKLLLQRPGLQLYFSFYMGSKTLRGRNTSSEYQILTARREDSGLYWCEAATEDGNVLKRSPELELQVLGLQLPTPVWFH

Binder	He/Con_1a
B24	109 % of GpH7-A5/GpH7-B3/GpL16-k0 (=100)
B25	104 % of GpH7-A5/GpH7-B3/GpL16-k0 (=100)
B26	106 % of GpH7-A5/GpH7-B3/GpL16-k0 (=100)
B27	107 % of GpH7-A5/GpH7-B3/GpL16-k0 (=100)
B28	105 % of GpH7-A5/GpH7-B3/GpL16-k0 (=100)
B29	103 % of GpH7-A5/GpH7-B3/GpL16-k0 (=100)
B30	111 % of GpH7-A5/GpH7-B3/GpL16-k0 (=100)
B31	104 % of GpH7-A5/GpH7-B3/GpL16-k0 (=100)
B32	106 % of GpH7-A5/GpH7-B3/GpL16-k0 (=100)
B33	113 % of GpH7-A5/GpH7-B3/GpL16-k0 (=100)
B34	106 % of GpH7-A5/GpH7-B3/GpL16-k0 (=100)
